In this data set the target is T1, CasX 119 (in cells) (Planctomycetes).
T1 chain: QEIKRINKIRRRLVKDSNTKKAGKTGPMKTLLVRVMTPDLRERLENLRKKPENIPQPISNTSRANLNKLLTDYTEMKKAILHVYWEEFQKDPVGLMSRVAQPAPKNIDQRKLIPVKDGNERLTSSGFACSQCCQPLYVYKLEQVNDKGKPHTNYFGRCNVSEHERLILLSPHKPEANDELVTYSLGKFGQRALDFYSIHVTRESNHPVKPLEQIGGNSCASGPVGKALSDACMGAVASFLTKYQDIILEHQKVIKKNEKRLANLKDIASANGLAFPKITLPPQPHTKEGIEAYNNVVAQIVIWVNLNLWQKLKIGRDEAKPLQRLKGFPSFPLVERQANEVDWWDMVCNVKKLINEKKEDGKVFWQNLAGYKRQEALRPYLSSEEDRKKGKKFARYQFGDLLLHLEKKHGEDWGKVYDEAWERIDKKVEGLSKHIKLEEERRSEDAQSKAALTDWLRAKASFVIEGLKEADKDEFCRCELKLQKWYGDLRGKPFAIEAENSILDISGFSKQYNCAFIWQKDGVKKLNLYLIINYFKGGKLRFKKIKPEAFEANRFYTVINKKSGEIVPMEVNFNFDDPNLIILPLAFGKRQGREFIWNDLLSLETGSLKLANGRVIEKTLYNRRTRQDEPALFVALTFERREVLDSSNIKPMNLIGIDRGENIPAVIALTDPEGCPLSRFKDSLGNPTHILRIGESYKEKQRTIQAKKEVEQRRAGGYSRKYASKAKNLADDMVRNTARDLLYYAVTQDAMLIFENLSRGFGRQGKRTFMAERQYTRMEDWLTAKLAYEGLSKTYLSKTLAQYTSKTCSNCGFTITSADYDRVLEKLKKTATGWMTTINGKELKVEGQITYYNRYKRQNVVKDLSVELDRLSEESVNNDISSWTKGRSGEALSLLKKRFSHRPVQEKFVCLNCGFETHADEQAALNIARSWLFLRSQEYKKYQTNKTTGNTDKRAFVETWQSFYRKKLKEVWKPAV
In words: cell_activity; TTC PAM; SOD1-GFP reporter, GFP disruption. To be noted: tags: NLS. From the text: A SOD1-GFP reporter line was constructed by knocking in GFP at the endogenous human SOD1 locus, shown schematically in FIG. 19. A reporter (e.g., GFP reporter) coupled to a gRNA targeting sequence, complementary to the gRNA spacer, is integrated into a reporter cell line. Cells are transformed or transfected with a CasX protein and/or sgRNA variant, with the spacer motif of the sgRNA complementary to and targeting the gRNA target sequence of the reporter. The ability of the CasX:sgRNA ribonucleoprotein complex to cleave the target nucleic acid sequence is assayed by FACS. Cells that lose reporter expression indicate occurrence of CasX:sgRNA ribonucleoprotein complex-mediated cleavage and indel formation. The reporting system is based on reduced GFP fluorescence upon successful modifying (editing) of the SOD1 locus, detected by flow cytometry as shown in FIG. 20.
CasX 2 (SEQ ID NO:2) and guide 2 (SEQ ID NO:5) (labeled here as StX) and CasX 119 molecule and rRNA guide 64 (119.64) (labeled here as EvoXI) with SOD1 targeting spacers (2, with an encoding sequence of […] (SEQ ID NO: 310), and spacer 4, with an encoding sequence of […] (SEQ ID NO: 366)), were lipofected into SOD1-GFP reporter cells, selected for successful lipofection using puromycin, and later assayed for GFP disruption via FACS.

B1: sgRNA 64 SOD1 spacer 2 ; SOD1 exon 2 site (spacer 2) (ssRNA ; dsDNA)
RNA: GUACUGGCGCCUUUAUCUCAUUACUUUGAGAGCCAUCACCAGCGACUAUGUCGUAUGGGUAAAGCGCUUACGGACUUCGGUCCGUAAGAAGCAUCAAAGAUGUUCAUGAGUUUGGAGAU
DNA 1: ATGTTCATGAGTTTGGAGAT
DNA 2: ATCTCCAAACTCATGAACAT
As to B1, the binding signal was determined as 35 fold vs CasX2 guide 2.

For the origin of these results see patent US20220348925, “COMPOSITIONS AND METHODS FOR THE TARGETING OF SOD1” (Scribe Therapeutics Inc., published 2022).
